US20090203610A1, “METHODS OF TREATING OBESITY OR DIABETES USING NT-4/5” (RINAT NEUROSCIENCE CORPORATION, priority 2004, published 2009)

Assays:
[1] = biological target: T1, human TrkB (Homo sapiens, UniProt Q16620); assay: Receptor tyrosine phosphorylation (KIRA) in TrkB expressing cell line; format: cell-based
T1 construct: expressed in transfected cells
Text: Method of making pegylated NT-4/5 (S50C): The native form of NT-4/5 used in this study was produced according to the method described in U.S. Pat. No. 6,184,360. A site-directed pegylated NT-4/5 was also produced. The structure of NT-4/5 in complex with domain 5 of TrkB was examined to find amino acid side chains that would be surface available and unlikely to interfere with natural disulfide bonds and also unlikely to interfere in either the interactions between the monomer subunits of NT-4/5 or the TrkB domain 5 to create a PEG attaching site. […] […] Mutant proteins were expressed in E. coli, solubilized, extracted, purified and refolded as the native NT-4/5. To pegylate the refolded NT4-S50C, NT4-Q105C, and NT-4-E67C, first a mild reduction with 0.1 mM DTT (dithiothreitol) was performed. Excess DTT was removed by dialysis against 50 mM sodium acetate at pH 6, then a 5 molar excess of mPEG-maleimide (M. W. of 10,000 Da, SunBio, Inc., South Korea) was incubated with the protein at 37° C. for several days with gentle agitation. Pegylated protein, non-pegylated protein and unreacted PEG were separated via ion exchange or size exclusion chromatography.
(§1) Assays of TrkB specific activation by pegylated NT-4/5: Stable cell lines expressing human TrkA, TrkB or TrkC were used to determine the functional activity, i.e. receptor phosphorylation, of NT-4/5 and pegylated NT-4/5 as previously described (Sadick et al. Experimental Cell Research 234: 354-361, 1997).
as §1, with “and different forms of” for “and”

[2] = test system: NONcNZO-10 polygenic obese mice; assay: Pegylated NT-4/5 cysteine mutant on body weight, food intake, glucose, triglyceride in NONcNZO-10 mice (Example 6); format: in vivo; conditions: 2 mg/kg/week injection
[3] = test system: db/db mice; assay: Daily food intake after single injection of NT-4/5 or pegylated NT-4/5 in db/db mice (Example 7, Table 22); format: in vivo; conditions: for Daily food intake: single s.c. injection 5 mg/kg, db/db mice, mean; for food intake: single subcutaneous injection, 5 mg/kg, significantly
Protocol: (§2) Test animals: 30 female db/db mice at 7 weeks of age weighing in the range of 27-34 g were used in this study.
(§3) Administration of NT-4/5 and pegylated NT-4/5: Wild type NT-4/5 was obtained from Genentech Inc. The mice were divided into 5 groups of equivalent body weight distribution (6 mice per group). Each group received on the first day (day 1) of the study one and the only dose of either vehicle, 5 mg/kg of NT-4/5 produced as described above, 5 mg/kg of 2PEG-NT4-G1S, or 5 mg/kg of 1PEG-NT4-G1S. 2PEG-NT4-G1S represents one PEG molecule was conjugated to each NT-4/5 monomer in a NT-4/5 dimer, and 1PEG-NT4-G1S represents one PEG molecule was conjugated to only one monomer of the NT-4/5 dimer. 2PEG-NT4-G1S and 1PEG-NT4-G1S were separated by ion exchange. Four days before starting the treatment (day −4), blood samples were collected from the mice as described previously for the determination of baseline levels of serum glucose. On day 4 after the treatment started, blood samples were collected again to determine serum glucose level. Body weight and food intake were monitored 5 days a week through out the entire study.

[4] = biological target: T2, human TrkA (Homo sapiens, UniProt P04629); assay: Receptor tyrosine phosphorylation in trkA expressing cell line; format: cell-based
T2 construct: expressed in transfected cells
T2 sequence (P04629 33-796): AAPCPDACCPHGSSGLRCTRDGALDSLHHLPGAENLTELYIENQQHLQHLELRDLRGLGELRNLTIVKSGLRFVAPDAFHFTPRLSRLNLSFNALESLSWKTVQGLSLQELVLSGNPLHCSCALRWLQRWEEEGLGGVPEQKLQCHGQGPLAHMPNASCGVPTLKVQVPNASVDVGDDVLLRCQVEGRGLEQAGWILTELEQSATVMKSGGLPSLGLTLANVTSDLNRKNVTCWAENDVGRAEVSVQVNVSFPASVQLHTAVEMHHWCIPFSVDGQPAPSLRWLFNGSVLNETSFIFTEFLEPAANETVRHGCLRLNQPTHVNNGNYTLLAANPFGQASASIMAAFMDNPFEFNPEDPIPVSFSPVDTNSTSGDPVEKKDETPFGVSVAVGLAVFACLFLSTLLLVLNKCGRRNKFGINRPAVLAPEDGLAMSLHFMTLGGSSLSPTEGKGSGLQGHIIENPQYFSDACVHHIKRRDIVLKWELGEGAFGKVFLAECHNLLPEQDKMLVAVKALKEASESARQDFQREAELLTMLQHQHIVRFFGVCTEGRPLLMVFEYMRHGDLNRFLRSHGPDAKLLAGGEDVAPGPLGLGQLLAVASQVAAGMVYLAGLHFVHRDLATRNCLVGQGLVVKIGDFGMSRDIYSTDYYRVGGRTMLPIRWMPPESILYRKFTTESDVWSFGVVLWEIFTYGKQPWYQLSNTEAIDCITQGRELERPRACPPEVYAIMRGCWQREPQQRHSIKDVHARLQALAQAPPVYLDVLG
Text: as §1
as §1, with “and different forms of” for “and”

[5] = test system: db/db mice; assay: Non-fasting serum glucose after single injection in db/db mice (Example 7); format: in vivo; conditions: after 4 days; single subcutaneous injection, 5 mg/kg
Protocol: as §2, §3

[6] = Serum half life after single subcutaneous dose in db/db mice (Example 7); format: in vivo
Text: In addition, pegylated NT-4/5 has extended half life in vivo.

[7] = biological target: T3, human TrkC (Homo sapiens, UniProt Q16288); assay: Receptor tyrosine phosphorylation in trkC expressing cell line; format: cell-based
T3 construct: expressed in transfected cells
T3 sequence (Q16288 32-839): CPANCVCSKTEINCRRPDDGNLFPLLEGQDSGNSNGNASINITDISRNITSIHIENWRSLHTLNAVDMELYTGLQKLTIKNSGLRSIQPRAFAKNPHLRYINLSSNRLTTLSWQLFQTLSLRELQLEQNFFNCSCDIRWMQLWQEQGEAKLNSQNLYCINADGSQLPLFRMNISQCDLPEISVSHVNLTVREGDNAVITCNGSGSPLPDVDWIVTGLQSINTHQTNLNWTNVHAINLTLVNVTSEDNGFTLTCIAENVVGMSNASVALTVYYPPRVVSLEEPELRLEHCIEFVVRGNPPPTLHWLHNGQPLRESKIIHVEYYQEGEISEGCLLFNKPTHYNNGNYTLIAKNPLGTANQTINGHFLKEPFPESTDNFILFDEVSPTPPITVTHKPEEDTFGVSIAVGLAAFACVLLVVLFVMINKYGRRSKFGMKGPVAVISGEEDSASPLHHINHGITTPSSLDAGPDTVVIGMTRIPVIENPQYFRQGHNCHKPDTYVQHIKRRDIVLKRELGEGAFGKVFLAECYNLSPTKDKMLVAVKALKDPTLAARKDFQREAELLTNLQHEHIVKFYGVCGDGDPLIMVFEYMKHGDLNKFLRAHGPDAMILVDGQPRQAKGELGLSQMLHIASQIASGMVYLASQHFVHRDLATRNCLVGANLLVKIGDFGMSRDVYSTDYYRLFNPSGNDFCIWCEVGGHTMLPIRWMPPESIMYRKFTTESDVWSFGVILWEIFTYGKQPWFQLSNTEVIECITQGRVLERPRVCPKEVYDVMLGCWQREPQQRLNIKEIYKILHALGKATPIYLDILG
Text: as §1
as §1, with “and different forms of” for “and”

[8] = test system: db/db mice; assay: Body weight after single injection of NT-4/5 or pegylated NT-4/5 in db/db mice (Example 7, Table 21); format: in vivo; conditions: for Body weight expressed in percentage of baseline value: single 5 mg/kg dose on day 1; for body weight growth: single subcutaneous injection, 5 mg/kg, significantly
Protocol: as §2, §3

T1 sequence (Q16620 32-822): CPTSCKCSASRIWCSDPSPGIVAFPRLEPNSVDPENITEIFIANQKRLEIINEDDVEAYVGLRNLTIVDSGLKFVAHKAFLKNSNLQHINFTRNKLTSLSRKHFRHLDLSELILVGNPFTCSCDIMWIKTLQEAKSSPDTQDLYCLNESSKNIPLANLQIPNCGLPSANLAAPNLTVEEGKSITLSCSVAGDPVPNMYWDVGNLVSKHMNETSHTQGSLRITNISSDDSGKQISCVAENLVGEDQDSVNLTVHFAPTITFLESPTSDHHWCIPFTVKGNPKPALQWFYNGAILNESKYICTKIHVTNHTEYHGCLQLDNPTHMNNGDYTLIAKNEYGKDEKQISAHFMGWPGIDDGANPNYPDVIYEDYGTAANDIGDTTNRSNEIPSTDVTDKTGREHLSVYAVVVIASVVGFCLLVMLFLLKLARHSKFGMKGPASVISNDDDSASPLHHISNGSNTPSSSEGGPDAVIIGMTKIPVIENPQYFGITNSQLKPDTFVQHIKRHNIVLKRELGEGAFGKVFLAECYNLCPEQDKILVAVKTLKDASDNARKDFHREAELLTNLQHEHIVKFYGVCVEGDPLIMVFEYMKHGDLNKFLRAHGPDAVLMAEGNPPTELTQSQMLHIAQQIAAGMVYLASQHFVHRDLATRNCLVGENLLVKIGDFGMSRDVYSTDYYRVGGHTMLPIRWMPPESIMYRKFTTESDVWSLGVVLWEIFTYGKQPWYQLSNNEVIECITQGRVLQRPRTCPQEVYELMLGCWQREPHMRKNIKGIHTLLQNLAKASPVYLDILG

Molecule | receptor tyrosine phosphorylation of TrkB-expressing cell line [1] | in vivo activity (body weight, food intake, glucose or triglyceride) [2] | Daily food intake ([3]; Day 1) | Daily food intake ([3]; Day 2) | Daily food intake ([3]; Day 3) | Daily food intake ([3]; Day 4) | food intake [3] | receptor tyrosine phosphorylation of trkA-expressing cell line [4] | non-fasting serum glucose levels [5] | absolute protein levels relative to native NT-4/5 ([6]; at any given time point) | serum half life ([6]; single subcutaneous dose of 4 mg/kg in db/db mice, estimated) | receptor tyrosine phosphorylation of trkC-expressing cell line [7] | Body weight expressed in percentage of baseline value ([8]; Day 1) | Body weight expressed in percentage of baseline value ([8]; Day 2) | Body weight expressed in percentage of baseline value ([8]; Day 3) | Body weight expressed in percentage of baseline value ([8]; Day 4) | body weight growth [8]
Pegylated mutant NT-4/5 (Q105C): NT-4/5 with residue 105 changed to cysteine, pegylated with mPEG-maleimide (10,000 Da) (conjugate) GVSETAPASRRGELAVCDAVSGWVTDRRTAVDLRGREVEVLGEVPAAGGSPLRQYFFETRCKADNAEEGGPGAGGGGCRGVDRRHWVSECKAKQSYVRALTADACGRVGWRWIRIDTACVCTLLSRTGRA | preserved TrkB receptor agonist activity | inactive in vivo | – | – | – | – | – | – | – | – | – | – | – | – | – | – | –
2PEG-NT4-G1S: NT4-G1S dimer with one 20 kDa PEG molecule conjugated to each NT-4/5 monomer (conjugate) SVSETAPASRRGELAVCDAVSGWVTDRRTAVDLRGREVEVLGEVPAAGGSPLRQYFFETRCKADNAEEGGPGAGGGGCRGVDRRHWVSECKAKQSYVRALTADAQGRVGWRWIRIDTACVCTLLSRTGRA | increased receptor tyrosine phosphorylation | – | 6.7 g/day | 5.3 g/day | 5.8 g/day | 6.2 g/day | reduced | did not increase receptor tyrosine phosphorylation | showed a tendency to reduce | several orders of magnitude higher | 12.7 to 16 h | did not increase receptor tyrosine phosphorylation | 100.0 % of baseline | 97.3 % of baseline | 98.4 % of baseline | 100.1 % of baseline | reduced the body weight growth
1PEG-NT4-G1S: NT4-G1S dimer with one 20 kDa PEG molecule conjugated to only one monomer (conjugate) chain 1: SVSETAPASRRGELAVCDAVSGWVTDRRTAVDLRGREVEVLGEVPAAGGSPLRQYFFETRCKADNAEEGGPGAGGGGCRGVDRRHWVSECKAKQSYVRALTADAQGRVGWRWIRIDTACVCTLLSRTGRA chain 2: SVSETAPASRRGELAVCDAVSGWVTDRRTAVDLRGREVEVLGEVPAAGGSPLRQYFFETRCKADNAEEGGPGAGGGGCRGVDRRHWVSECKAKQSYVRALTADAQGRVGWRWIRIDTACVCTLLSRTGRA | increased receptor tyrosine phosphorylation | – | 6.8 g/day | 5.3 g/day | 6.7 g/day | 6.3 g/day | reduced | did not increase receptor tyrosine phosphorylation | showed a tendency to reduce | – | – | did not increase receptor tyrosine phosphorylation | 100.0 % of baseline | 98.2 % of baseline | 100.0 % of baseline | 103.0 % of baseline | reduced the body weight growth
